Here are results for 55 molecules from PMC12416549 (2024).

Sequences and labels used below:
B1: A19W (designed binder)
chain: MTLQELLREEALRRAEAEWFRYALELLAEKFPEQKEYLLDLAEEIESQIRSLSGVDVEDVRKFLDKEWAWVKELLAEHPAELAEVEAARAARLAELRAEVEAKVAA
B2: E58D (designed binder)
chain: B1 chain with W19A, E58D
B3: D40I (designed binder)
chain: B1 chain with W19A, D40I
B4: L74H (designed binder)
chain: B1 chain with W19A, L74H
B5: S51P (designed binder)
chain: B1 chain with W19A, S51P
B6: A19C (designed binder)
chain: B1 chain with W19C
B7: G54S (designed binder)
chain: B1 chain with W19A, G54S
B8: D56E (designed binder)
chain: B1 chain with W19A, D56E
B9: E9C (designed binder)
chain: B1 chain with E9C, W19A
B10: Y37H (designed binder)
chain: B1 chain with W19A, Y37H
B11: R92A (designed binder)
chain: B1 chain with W19A, R92A
B12: E18A (designed binder)
chain: B1 chain with E18A, W19A
B13: L3Q (designed binder)
chain: B1 chain with L3Q, W19A
B14: A28W (designed binder)
chain: B1 chain with W19A, A28W
B15: A42K (designed binder)
chain: B1 chain with W19A, A42K
B16: S53R (designed binder)
chain: B1 chain with W19A, S53R
B17: A42N (designed binder)
chain: B1 chain with W19A, A42N
B18: K72R (designed binder)
chain: B1 chain with W19A, K72R
B19: L64M (designed binder)
chain: B1 chain with W19A, L64M
B20: A98I (designed binder)
chain: B1 chain with W19A, A98I
B21: E81C (designed binder)
chain: B1 chain with W19A, E81C
B22: Q4R (designed binder)
chain: B1 chain with Q4R, W19A
B23: S51K (designed binder)
chain: B1 chain with W19A, S51K
B24: S51T (designed binder)
chain: B1 chain with W19A, S51T
B25: F31L (designed binder)
chain: B1 chain with W19A, F31L
B26: M1T (designed binder)
chain: B1 chain with M1T, W19A
B27: A76P (designed binder)
chain: B1 chain with W19A, A76P
B28: R21L (designed binder)
chain: B1 chain with W19A, R21L
B29: L7K (designed binder)
chain: B1 chain with L7K, W19A
B30: R61T (designed binder)
chain: B1 chain with W19A, R61T
B31: D59G (designed binder)
chain: B1 chain with W19A, D59G
B32: Y37Q (designed binder)
chain: B1 chain with W19A, Y37Q
B33: I45K (designed binder)
chain: B1 chain with W19A, I45K
B34: L64I (designed binder)
chain: B1 chain with W19A, L64I
B35: E43V (designed binder)
chain: B1 chain with W19A, E43V
B36: E95D (designed binder)
chain: B1 chain with W19A, E95D
B37: E67K (designed binder)
chain: B1 chain with W19A, E67K
B38: E99Y (designed binder)
chain: B1 chain with W19A, E99Y
B39: G54C (designed binder)
chain: B1 chain with W19A, G54C
B40: A83V (designed binder)
chain: B1 chain with W19A, A83V
B41: A87V (designed binder)
chain: B1 chain with W19A, A87V
B42: E10R (designed binder)
chain: B1 chain with E10R, W19A
B43: A80V (designed binder)
chain: B1 chain with W19A, A80V
B44: A105W (designed binder)
chain: B1 chain with W19A, A105W
B45: Y22L (designed binder)
chain: B1 chain with W19A, Y22L
B46: A90F (designed binder)
chain: B1 chain with W19A, A90F
B47: E36C (designed binder)
chain: B1 chain with W19A, E36C
B48: R50F (designed binder)
chain: B1 chain with W19A, R50F
B49: V71S (designed binder)
chain: B1 chain with W19A, V71S
B50: R97L (designed binder)
chain: B1 chain with W19A, R97L
B51: A80W (designed binder)
chain: B1 chain with W19A, A80W
B52: V57Q (designed binder)
chain: B1 chain with W19A, V57Q
B53: Q48R (designed binder)
chain: B1 chain with W19A, Q48R
B54: E25L (designed binder)
chain: B1 chain with W19A, E25L
B55: E86R (designed binder)
chain: B1 chain with W19A, E86R

Positions count from the first letter of the chain named. In names and notes the source's numbering stands.

The assay has as its target T1, TNFR1 (Homo sapiens, UniProt P19438).
T1 chain: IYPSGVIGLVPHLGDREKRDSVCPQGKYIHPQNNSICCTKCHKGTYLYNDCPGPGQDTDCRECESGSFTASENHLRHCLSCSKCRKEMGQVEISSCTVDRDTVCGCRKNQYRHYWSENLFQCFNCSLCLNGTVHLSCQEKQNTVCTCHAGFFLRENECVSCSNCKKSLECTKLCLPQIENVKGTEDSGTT
In words: yeast display SC50.
Turning to B1, the “apparent Kd (screen)” value amounted to 9.41 nM.
Take B2: the “apparent Kd (screen)” value stood at 0.539 nM.
Take B3: the “apparent Kd (screen)” value worked out at 13.8 nM.
In the case of B4, the “apparent Kd (screen)” value stood at 0.79 nM.
The value for B5 was 0.593 nM; that for B6 was 0.49 nM.
With B7 the figure was 0.956 nM; with B8, 0.593 nM.
Take B9: the “apparent Kd (screen)” value stood at 0.405 nM.
As to B10, the “apparent Kd (screen)” value was 11.4 nM.
With B11 the figure was 0.956 nM.
As for B12, the “apparent Kd (screen)” value was 0.718 nM.
For B13, the “apparent Kd (screen)” value came to 22.2 nM.
In the case of B14, the “apparent Kd (screen)” value amounted to 10.4 nM.
B15: the “apparent Kd (screen)” value was found to be 3.99 nM.
For B16, the “apparent Kd (screen)” value came to 2.05 nM.
In the case of B17, the “apparent Kd (screen)” value amounted to 0.869 nM.
For B18, the “apparent Kd (screen)” value was 0.869 nM.
For B19, the “apparent Kd (screen)” value was 0.653 nM.
The value for B20 was 0.653 nM; that for B21 was 0.79 nM; that for B22 was 0.49 nM.
Turning to B23, the “apparent Kd (screen)” value amounted to 1.27 nM.
With B24, the “apparent Kd (screen)” value was determined as 0.405 nM.
In the case of B25, the “apparent Kd (screen)” value was 0.869 nM.
Regarding B26, the “apparent Kd (screen)” value was found to be 0.49 nM.
As to B27, the “apparent Kd (screen)” value came out at 2.05 nM.
Consider B28, for which the “apparent Kd (screen)” value was found to be 0.653 nM.
Regarding B29, the “apparent Kd (screen)” value came out at 16.7 nM.
Regarding B30, the “apparent Kd (screen)” value came to 0.593 nM.
As to B31, the “apparent Kd (screen)” value was 0.653 nM.
For the molecule B32, the “apparent Kd (screen)” value was 8.56 nM.
In the case of B33, the “apparent Kd (screen)” value was determined as 3.99 nM.
As for B34, the “apparent Kd (screen)” value was found to be 1.16 nM.
Turning to B35, the “apparent Kd (screen)” value stood at 0.539 nM.
On to B36, for which the “apparent Kd (screen)” value was 0.593 nM.
With B37 the figure was 2.73 nM; with B38, 0.718 nM; with B39, 24.4 nM.
As for B40, the “apparent Kd (screen)” value is 0.718 nM.
The value for B41 was 0.539 nM; that for B42 was 10.4 nM; that for B43 was 0.869 nM.
The value for B44 was 0.869 nM; that for B45 was 0.718 nM.
As for B46, the “apparent Kd (screen)” value is 0.869 nM.
For B47, the “apparent Kd (screen)” value was 0.539 nM.
The value for B48 was 1.16 nM; that for B49 was 2.48 nM.
For the molecule B50, the “apparent Kd (screen)” value was 0.653 nM.
In the case of B51, the “apparent Kd (screen)” value was found to be 0.446 nM.
As to B52, the “apparent Kd (screen)” value came to 0.869 nM.
As for B53, the “apparent Kd (screen)” value came to 1.86 nM.
For B54, the “apparent Kd (screen)” value was 0.539 nM.
On to B55, for which the “apparent Kd (screen)” value stood at 1.27 nM.
